# According to patent US20160264684A1, “GLYCAN-INTERACTING COMPOUNDS AND METHODS OF USE” (SIAMAB THERAPEUTICS, INC., priority 2013, published 2016):
# Experiments:
# Format in all cases: binding
# GcSTn-PAA ELISA = conditions: 200 ng/well PAA antigen; 1:5 dilutions from 1 μM
# Protocol: (§1) Anti-STn serum titer is determined using a murine anti-STn bovine submaxillary mucin (BSM) ELISA together with serum profiles observed by glycan microarray. 96-well plates are coated with 1 μg/well of BSM and incubated overnight at 4° C. O-acetylation of BSM antigen is removed by treating wells with 0.1 M sodium hydroxide. Specific binding to STn is determined by treatment of wells with sodium periodate. Periodate treatment destroys the C6 side chain of sialic acid; therefore antibodies raised against STn should not bind to periodate-treated wells. Wells are blocked with PBS 1% ovalbumin (OVA). Serum samples to be assayed are serially diluted in PBS 1% OVA. […] Detection of anti-STn antibodies present in serum is determined using an HRP-conjugated polyclonal goat anti-mouse IgG antibody (Jackson Immunoresearch, West Grove, Pa.). […] Optical densities are measured at 490 nm using a Spectramax microplate reader (Molecular Devices, Sunnyvale, Calif.). The serum titer is obtained by comparison of OD values with a cutoff value calculated as two standard deviations above the mean of optical density values of the negative control. […]
# (§2) 18D2 and 18C7 antibodies were further characterized by ELISA comprising antigens other than BSM. […] Binding of anti-STn antibodies was detected using a goat anti-mouse IgG-HRP conjugated antibody (Jackson Immunoresearch Laboratories, West Grove, Pa.). […]
# [1] = Glycan microarray analysis, GcSTn
# Protocol: (§3) Optimized glycan arrays comprise 71 chemically synthesized and well-defined glycans, most of which comprise Neu5Ac and Neu5Gc glycan pairs.
# (§4) 300 ml of epoxy blocking buffer is prepared by combining 15 ml of 2 M Tris buffer (pH 8) with 0.9 ml of 16.6 M ethanolamine and 284.1 ml of distilled water. The solution is filtered using a 0.2 μM nitrocellulose membrane. The epoxy buffer solution as well as 1 L of distilled water are pre-warmed to 50° C. Glass slides are arranged in a slide holder and quickly submerged in a staining tub with the warmed epoxy blocking buffer. Slides are incubated in the epoxy blocking buffer for 1 hour at 50° C. with periodic shaking to deactivate epoxy binding sites. Next, slides are rinsed and blocked with PBS with 1% OVA at 25° C. for one hour. Serum samples are diluted 1:1000 in PBS with 1% OVA and added to the glycan array for one hour at 25° C. After extensive washing, binding of polyclonal serum antibodies are detected by incubating glycan microarray slides with Cy3-conjugated anti-mouse IgG (Jackson Immunoresearch, West Grove, Pa.) for one hour. […]
# (§5) 18D2 and 18C7 clones were expanded and binding properties of these hybridomas were determined by glycan microarray analysis according to Example 4. […] No binding to Tn antigen or other glycans was detected.
# [2] = system: STn on bovine submaxillary mucin (BSM); experiment: Anti-STn BSM ELISA
# Protocol: Anti-STn serum titer is determined using a murine anti-STn bovine submaxillary mucin (BSM) ELISA together with serum profiles observed by glycan microarray. 96-well plates are coated with 1 μg/well of BSM and incubated overnight at 4° C. O-acetylation of BSM antigen is removed by treating wells with 0.1 M sodium hydroxide. Specific binding to STn is determined by treatment of wells with sodium periodate. Periodate treatment destroys the C6 side chain of sialic acid; therefore antibodies raised against STn should not bind to periodate-treated wells. Wells are blocked with PBS 1% ovalbumin (OVA). Serum samples to be assayed are serially diluted in PBS 1% OVA. A commercially available mouse anti-STn monoclonal antibody, 3F1 (SBH Sciences, Natick, Mass.) is used as a positive control. This antibody is also serially diluted in PBS with 1% OVA. A pool of serum from naïve wild type mice is used for the preparation of negative control samples. Detection of anti-STn antibodies present in serum is determined using an HRP-conjugated polyclonal goat anti-mouse IgG antibody (Jackson Immunoresearch, West Grove, Pa.). The reaction is stopped by addition of sulfuric acid (1.6 M). Optical densities are measured at 490 nm using a Spectramax microplate reader (Molecular Devices, Sunnyvale, Calif.). The serum titer is obtained by comparison of OD values with a cutoff value calculated as two standard deviations above the mean of optical density values of the negative control. […]
# Binding affinities of 18D2 and 18C7 to STn were compared to commercially available anti-STn antibodies using the BSM ELISA assay described in Example 2. […] Antibody binding was determined using HRP-conjugated polyclonal goat anti-mouse IgG antibody (Jackson Immunoresearch Laboratories, West Grove, Pa.). […] Optical densities were measured at 490 nm using a Spectramax microplate reader. […] The half maximal effective concentration (EC50) for each antibody was calculated using a non-linear regression analysis carried out on periodate subtracted data.
# [3] = Glycan microarray analysis, AcSTn
# Protocol: as §3, §4, §5
# AcSTn-PAA ELISA = conditions: 200 ng/well PAA antigen; 1:5 dilutions from 1 μM
# Protocol: as §1, §2
molecule,measurement,setting,value
"18D2: anti-STn monoclonal antibody from mouse #4436; IgG2b κ; heavy chain SEQ ID NO 1, light chains SEQ ID NO 2 and 3 (antibody, V domains shown) VH: QVTLKESGPGILQPSQTLSLTCSFSGFSLSTSNMGIGWIRQPSGKGLEWLAHIWWHDDKYYNPSLKSRLTISKDISNNQVFLKITSVDTADTATYYCAQVPFYYGTSFDVWGTGTTVTVSS VL 1: DIVMTQSPATLSVTPGDRVSLSCRASQSISDYLHWYQQKSHESPRLLIKYASQSISGIPSRFSGSGSGSDFTLSINSVEPEDVGVYYCQNGHSFPLTFGAGTKLELK VL 2: QIVLTQSPAIMSASPGETVTMTCSASSSITYMHWYQQKPGTSPKRWIYDTSKLASGVPARFSGSGSGTSYSLTISSMEAEDAATYYCHQRSSYTFGGGTKLEIKR",EC50,GcSTn-PAA ELISA,1.57 nM
same,Glycan Array GcSTn,[1],50%
same,"mean fluorescence intensity, GcSTn",[1]; glycan microarray,"about 7,000"
same,binding to periodate-treated wells,"[2]; BSM ELISA, sodium periodate treated wells",did not bind
same,EC50,"[2]; non-linear regression on periodate subtracted data, 7-point 1:5 dilution from 100 nM",6.3 nM
same,Glycan Array AcSTn,[3],50%
same,"mean fluorescence intensity, AcSTn",[3]; glycan microarray,"about 16,000"
same,EC50,AcSTn-PAA ELISA,1.71 nM
